Measurements: patent US20240084003A1 (SIMCERE ZAIMING PHARMACEUTICAL, published 2024)

T1: human CD22, endogenous on Raji cells (human, UniProt P20273 20-847)
T1 construct: whole, on cells; Endogenous protein of the Raji cell line
T1 sequence (looked up): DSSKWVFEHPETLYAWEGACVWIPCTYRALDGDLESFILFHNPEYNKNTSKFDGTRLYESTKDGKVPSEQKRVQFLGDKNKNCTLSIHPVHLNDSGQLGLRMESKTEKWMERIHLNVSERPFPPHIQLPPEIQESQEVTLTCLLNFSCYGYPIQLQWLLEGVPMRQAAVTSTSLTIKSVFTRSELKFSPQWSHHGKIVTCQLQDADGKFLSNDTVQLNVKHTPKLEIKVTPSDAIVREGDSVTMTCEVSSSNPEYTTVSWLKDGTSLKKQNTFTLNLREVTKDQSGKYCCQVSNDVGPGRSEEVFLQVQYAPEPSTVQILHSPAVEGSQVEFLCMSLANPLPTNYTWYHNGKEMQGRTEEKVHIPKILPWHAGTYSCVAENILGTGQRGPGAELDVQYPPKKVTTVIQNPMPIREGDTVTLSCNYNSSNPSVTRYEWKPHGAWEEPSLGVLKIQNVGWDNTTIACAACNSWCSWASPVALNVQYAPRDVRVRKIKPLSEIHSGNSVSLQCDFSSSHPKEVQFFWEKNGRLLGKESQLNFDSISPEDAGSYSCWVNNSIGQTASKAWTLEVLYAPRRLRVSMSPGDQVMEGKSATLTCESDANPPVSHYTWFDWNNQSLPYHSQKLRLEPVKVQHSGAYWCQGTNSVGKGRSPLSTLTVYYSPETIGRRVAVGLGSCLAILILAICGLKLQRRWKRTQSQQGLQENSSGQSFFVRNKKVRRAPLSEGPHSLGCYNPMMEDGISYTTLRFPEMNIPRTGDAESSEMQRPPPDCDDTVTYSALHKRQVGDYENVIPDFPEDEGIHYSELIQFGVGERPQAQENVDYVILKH

T2: human CD22, full length, on CHO-K1-human CD22 2C4 cells (human, UniProt P20273 20-847)
T2 construct: Full-length human CD22 (NCBI NP_001762.2) stably transfected into CHO-K1
T2 sequence: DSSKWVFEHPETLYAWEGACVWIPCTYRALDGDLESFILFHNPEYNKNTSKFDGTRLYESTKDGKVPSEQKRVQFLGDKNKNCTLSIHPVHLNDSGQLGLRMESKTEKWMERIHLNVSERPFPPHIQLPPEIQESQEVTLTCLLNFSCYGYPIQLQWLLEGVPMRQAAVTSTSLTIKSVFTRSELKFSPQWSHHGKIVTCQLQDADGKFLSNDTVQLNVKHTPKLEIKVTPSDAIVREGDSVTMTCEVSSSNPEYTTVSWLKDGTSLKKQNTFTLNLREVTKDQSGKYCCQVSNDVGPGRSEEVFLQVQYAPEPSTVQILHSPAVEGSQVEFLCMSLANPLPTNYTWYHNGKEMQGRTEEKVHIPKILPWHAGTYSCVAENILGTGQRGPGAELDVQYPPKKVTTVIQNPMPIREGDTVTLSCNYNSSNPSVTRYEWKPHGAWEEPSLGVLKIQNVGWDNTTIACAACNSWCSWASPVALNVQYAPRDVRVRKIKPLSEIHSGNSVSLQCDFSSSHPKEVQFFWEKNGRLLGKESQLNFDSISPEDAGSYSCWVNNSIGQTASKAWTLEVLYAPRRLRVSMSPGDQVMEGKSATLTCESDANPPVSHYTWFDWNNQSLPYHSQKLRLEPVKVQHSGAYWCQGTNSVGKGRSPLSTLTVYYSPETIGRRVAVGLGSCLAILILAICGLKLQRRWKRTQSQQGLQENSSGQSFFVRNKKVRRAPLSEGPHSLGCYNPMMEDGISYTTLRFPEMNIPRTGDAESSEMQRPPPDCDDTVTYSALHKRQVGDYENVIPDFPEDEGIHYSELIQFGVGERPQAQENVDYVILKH

T3: murine CD22 protein (ACROBiosystems, SI2-M52Ha) (murine, UniProt P35329 22-708)
T3 construct: extracellular domain; also called murine CD22-ECD; murine CD22-ECD-His
T3 sequence (looked up): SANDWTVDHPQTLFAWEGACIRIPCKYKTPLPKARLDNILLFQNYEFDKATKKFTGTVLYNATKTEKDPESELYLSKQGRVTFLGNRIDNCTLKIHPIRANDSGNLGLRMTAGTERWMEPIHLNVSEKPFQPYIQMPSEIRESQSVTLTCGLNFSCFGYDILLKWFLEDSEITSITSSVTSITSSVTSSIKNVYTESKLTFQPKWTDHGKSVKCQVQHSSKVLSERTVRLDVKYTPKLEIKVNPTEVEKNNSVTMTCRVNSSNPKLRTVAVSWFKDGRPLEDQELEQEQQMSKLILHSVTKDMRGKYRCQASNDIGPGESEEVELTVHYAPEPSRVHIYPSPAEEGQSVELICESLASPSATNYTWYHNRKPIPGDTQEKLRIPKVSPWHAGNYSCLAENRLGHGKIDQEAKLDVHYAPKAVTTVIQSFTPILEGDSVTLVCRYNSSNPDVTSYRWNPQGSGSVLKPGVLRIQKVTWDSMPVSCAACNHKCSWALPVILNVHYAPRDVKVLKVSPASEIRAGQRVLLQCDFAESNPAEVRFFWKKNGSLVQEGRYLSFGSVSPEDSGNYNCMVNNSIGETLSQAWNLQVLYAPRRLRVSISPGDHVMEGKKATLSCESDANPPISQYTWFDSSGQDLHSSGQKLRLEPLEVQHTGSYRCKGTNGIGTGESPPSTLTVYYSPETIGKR


How the values were obtained:
[1] = target: T1, human CD22, endogenous on Raji cells; assay: FACS, Raji cells
Source text: (§1) The required cells were scale-up cultured in a T-75 cell culture flask to the logarithmic growth phase. For the adherent cell CHO-K1, the medium was aspirated, the cells were washed 2 times with PBS buffer, and then digested with trypsin. After the digestion was terminated, the cells were washed 2 times with PBS buffer. For suspension cell Raji, the medium supernatant was directly centrifuged and discarded, and the cell pellet was washed 2 times with PBS. After counting the cells in the previous step, the cell pellet was resuspended with [PBS+2% (w/w) BSA] blocking solution to 2×10⁶ cells/ml, and added to a 96-well FACS reaction plate at 50 μl/well, and then the chimeric antibody test sample was added at 50 μl/well, and incubated on ice for 2 hours. The mixture was centrifuged and washed 3 times with PBS buffer, Alexa Flour 488-labeled secondary antibody (purchased from Invitrogen, catalog number: A-11013) was added at 50 μl/well, and incubated on ice for 1 hour. The obtained mixture was centrifuged and washed 5 times with PBS, and FACS (FACS Canto™, purchased from BD Company) was used for detection and result analysis. Data analysis was performed by software (CellQuest) to obtain the mean fluorescence density (MFI)of the cells. And then software (GraphPad Prism8) was used for analysis, data fitting, and EC50 value calculation. […] The same method was used to detect the binding of the chimeric antibodies to endogenous CD22-negative cell MoLT4 cells (purchased from ATCC, CRL-1582) and CHO-K1 cells.

[2] = target: T2, human CD22, full length, on …; assay: FACS, CHO-K1-human CD22 2C4 cells
Source text: as §1

[3] = target: T3, murine CD22 protein (ACROBiosystems, …); assay: ELISA, coated murine CD22, 10 nM Ab
In short: (§2)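 Coat 2 μg/mL CD22 in PBS, overnight 4° C; block PBS/2% BSA 2 h RT. Ab 2 h 37° C; HRP anti-species secondary 2 h 37° C. TMB 30 min RT, stop 1.0 N HCl.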

[4] = target: T3, murine CD22 protein (ACROBiosystems, …); assay: ELISA, coated murine CD22, 0.1 nM Ab
In short: as §2

[5] = target: T3, murine CD22 protein (ACROBiosystems, …); assay: ELISA, coated murine CD22, 100 nM Ab
In short: as §2

[6] = target: T3, murine CD22 protein (ACROBiosystems, …); assay: ELISA, coated murine CD22, 0.01 nM Ab
In short: as §2

[7] = target: T3, murine CD22 protein (ACROBiosystems, …); assay: ELISA, coated murine CD22, 0.001 nM Ab
In short: as §2

[8] = target: T3, murine CD22 protein (ACROBiosystems, …); assay: ELISA, coated murine CD22, 0.0001 nM Ab
In short: as §2

[9] = target: T3, murine CD22 protein (ACROBiosystems, …); assay: ELISA, coated murine CD22, 0.00001 nM Ab
In short: as §2

Row | EC50 [1] | Maximum mean fluorescence intensity [1] | EC50 [2] | Maximum mean fluorescence intensity [2] | OD450 [3] | OD450 [4] | OD450 [5] | OD450 [6] | OD450 [7] | OD450 [8] | OD450 [9] | Binder
1 | 590 pM | 24400 MFI | 1220 pM | 58500 MFI | 0.07 OD450 | 0.06 OD450 | 0.1 OD450 | 0.05 OD450 | 0.05 OD450 | 0.06 OD450 | 0.06 OD450 | F2.127.11 human-murine chimeric antibody (antibody, human IgG1, lambda, V domains shown, Chimeric, human IgG1 / lambda; VL tied by name) VH: QVTLKESGPGILQPSQTLSLTCSFSGFSLSTFGMGVGWIRQPSGKGLEWLAHIWWDDDKHYNPALKSRLTISKDTSRNQVFLKIANVDTADGATYFCARDNWVSSLDYWGQGTSVIVSS VL: QPVITQSSSASFSLGASAELTCTLSSQHSTYTIEWYQQQPLKPPKYVMGLKKDGSHSTGDGIPDRFSGSSSGADRYLSISNIQPEDEAIYICGVSDTIKEQFVYVFGGGTKVTVLG
2 | 800 pM | 19300 MFI | 1150 pM | 50200 MFI | 0.06 OD450 | 0.05 OD450 | 0.07 OD450 | 0.05 OD450 | 0.05 OD450 | 0.05 OD450 | 0.06 OD450 | F2.343.16 human-murine chimeric antibody (antibody, human IgG1, lambda, V domains shown, Chimeric, human IgG1 / lambda; VL tied by name) VH: QVQLKQSGPGLVQPSQSLSITCTVSGFSLTGYGVQWVRQSPGKGLEWLGVIWGGGGTDYNAAFISRLNIIKDNSKSQVFFKMNSLQADDTAIYYCARYSKYGHFDVWGTGTAVTVSS VL: QAVVTQESALTTSPGETVTLTCRSSTGAVTTSNYANWVQEKPDHLFTGLIGGTYNRVPGVPARFSGSLIGDKAALTITGAQTEDEAIYFCALWYSNHFWVFGGGTKLTVLG
3 | 380 pM | 15500 MFI | 720 pM | 40200 MFI | 0.06 OD450 | 0.05 OD450 | 0.07 OD450 | 0.05 OD450 | 0.05 OD450 | 0.05 OD450 | 0.06 OD450 | F2.205.9 human-murine chimeric antibody (antibody, human IgG1, lambda, V domains shown, Chimeric, human IgG1 / lambda; VL tied by name) VH: QVTLKESGPGILQPSQTLSLTCSFSGFSLSTSGMGVGWIRQPSGKGLEWLAHIWWDDDEYYNPALKSRLTISKDTSKNQVFLKIANVDTADTATYYCARISIPYGYYDWFFDVWGTGTTVTVSA VL: QAVVTQESALTTSPGETVTLTCRSSTGAVTTRNYANWVQEKPDHLFTGLIGGTNNRAPGVPARFSGSLIGDKAALTITGAQTEDEAIYFCALWYSNHFIFGSGTKVTVLG
4 | 1260 pM | 18800 MFI | 3280 pM | 37000 MFI | 0.08 OD450 | 0.07 OD450 | 0.09 OD450 | 0.07 OD450 | 0.07 OD450 | 0.07 OD450 | 0.07 OD450 | F2.151.13 human-murine chimeric antibody (antibody, human IgG1, lambda, V domains shown, Chimeric, human IgG1 / lambda) VH: QVHLQQPGTELMKPGASVKLSCKATGYTFRDYWLEWVKQRPGHGLEWIGEILPGSGNAYYNEKFKGKATFTADTSSNTAYMQLSSLTTEDSAIYYCARVYSNWYFDAWGKGTTVTVSS VL: QAVVTQESALTTSPGETVTLTCRSSTGAVTTSNYANWVQEKPDHLFTGLIGGTNNQAPGVPARFSGSLIGDKAALTISGAQTEDEAIYFCALWFSNHWVFGGGTKLTVLG
5 | 590 pM | 18100 MFI | 830 pM | 44800 MFI | 0.06 OD450 | 0.05 OD450 | 0.07 OD450 | 0.06 OD450 | 0.05 OD450 | 0.05 OD450 | 0.06 OD450 | F2.99.1 human-murine chimeric antibody (antibody, human IgG1, lambda, V domains shown, Chimeric, human IgG1 / lambda; VL tied by name) VH: QVTLKESGPGILQPSQTLSLTCSFSGFSLSTFPMGVGWIRQPSGKGLEWLAHIWWDDDEYYNPVLKSRLTISKDTSKKQVYLRIANVDTVDTATYYCTRANWDRWYFDVWGTGTTVTVSS VL: QLVLTQSSSASFSLGASAKLTCTLSRQHSAYTIEWYQQQPLKPPKYVMEVKKDGSHSTGDGIPDRFSGSSSGADRYLSISNIQPEDEAIYICGVGDTIKEHFVFGGGTKVTVLG
6 | 410 pM | 18600 MFI | 820 pM | 42000 MFI | 0.06 OD450 | 0.06 OD450 | 0.09 OD450 | 0.05 OD450 | 0.05 OD450 | 0.06 OD450 | 0.06 OD450 | F2.55.1 human-murine chimeric antibody (antibody, human IgG1, lambda, V domains shown, Chimeric, human IgG1 / lambda; VL tied by name) VH: QVTLKESGPGILQPSQTLSLTCSFSGFSLSTFPLGVGWIRQPSGKGLEWLAHVWWNDDDYYNPALKSRLTISKDTSNTRVFLSVASVDTAETATYYCARLNWDRWYFDVWGTGTTVTVSS VL: QLVLTQSSSASFSLGASAKLTCTLSSQHSAYTVEWYQQQPLKPPKYVMELKKDGSHSTGDGIPDRFSGSSSGADRYLSISNIQPEDEAIYICGVGDTVKEQFVFGGGTKVTVLG
7 | 330 pM | 16700 MFI | 870 pM | 41000 MFI | 0.08 OD450 | 0.08 OD450 | 0.09 OD450 | 0.07 OD450 | 0.07 OD450 | 0.08 OD450 | 0.08 OD450 | F2.42.9 human-murine chimeric antibody (antibody, human IgG1, lambda, V domains shown, Chimeric, human IgG1 / lambda; VL tied by name) VH: QVTLKESGPGILQPSQTLSLTCSFSGFSLSTFDRGVGWIRQPSGKGLEWLAHIWWNDKKFYNPVLKSRLTISKDTSKNQVFLTIANVDSADTATYSCARIVWDKYYFDYWGQGIPLTVSS VL: QLVLTQSSSASFSLGASAKLTCTLSSQHSAYTIEWYQQQPLKPPKFVMDLKKDGSHSTGDGIPARFSGSSSGADRYLTISNIQPEDEAIYICGVGDTIKEQYVFGGGTKVTVLG
